Test results as given in patent publication US20140017764.
Numbering of substitutions follows the chain as printed.

Key:
[1] = tested on: T1, HCV-P preferred substrate construct (DEMEECASHL)
T1 sequence: DEMEECASHL

[2] = molecular target: T2, Aga2 substrate fusion polypeptide with HCV-P counter selection sequence and TEV-P selection substrate ENLYFQS
T2 chain: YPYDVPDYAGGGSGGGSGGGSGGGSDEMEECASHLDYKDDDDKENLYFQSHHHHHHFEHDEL

[3] = molecular target: T3, human granzyme K preferred substrate construct (CGYGPKKKRKVGG)
T3 chain: CGYGPKKKRKVGG

[4] = molecular target: T4, TENLYFESGTRRW peptide substrate
T4 chain: TENLYFESGTRRW

[5] = molecular target: T5, TENLYFHSGTRRW peptide substrate
T5 chain: TENLYFHSGTRRW

[6] = molecular target: human AblTK preferred substrate construct

hepatitis C protease (HCV-P)
YESS two-color FACS (PE / FITC) [1]: displayed relatively similar PE but low FITC signals by FACS compared to the controls lacking proteases

B1: TEV-P anchored with a C-terminal ER retention sequence, expressed in the yeast ER (protein)
chain: SLFKGPRDYNPISSTICHLTNESDGHTTSLYGIGFGPFIITNKHLFRRNNGTLLVQSLHGVFKVKNTTTLQQHLIDGRDMIIIRMPKDFPPFPQKLKFREPQREERICLVTTNFQTKSMSSMVSDTSCTFPSSDGIFWKHWIQTKDGQCGSPLVSTRDGFIVGIHSASNFTNTNNYFTSVPKNFMELLTNQEAQQWVSGWRLNADSVLWGGHKVFMPKPEEPFQPVKEATQLMNFEHDEL
YESS two-color FACS (anti-FLAG-PE / anti-6xHis-FITC) [2]: high PE but low FITC fluorescence

B2: human granzyme K protease (GrK) (protein)
chain: IIGGKEVSPHSRPFMASIQYGGHHVCGGVLIDPQWVLTAAHCQYRFTKGQSPTVVLGAHSLSKNEASKQTLEIKKFIPFSRVTSDPQSNDIMLVKLQTAAKLNKHVKMLHIRSKTSLRSGTKCKVTGWGATDPDSLRPSDTLREVTVTVLSRKLCNSQSYYNGDPFITKDMVCAGDAKGQKDSCKGDSGGPLICKGVFHAIVSGGHECGVATKPGIYTLLTKKYQTWIKSNLVPPHTN
YESS two-color FACS (PE / FITC) [3]: displayed relatively similar PE but low FITC signals by FACS compared to the controls lacking proteases

B3: TEV-PE10, purified (protein)
chain: HHHHHHSLFKGPRDYNPISSTICHLTNESDGHTTSLYGIGFGPFIITNKHLFRRNNGTLLVQSLHGVFKVKNTTTLQQHLIDGRDMIIIRMPKDFPPFPQKLKFREPQREERICLVTTNFQTKRMSSMVSDTSCTFPSSDGIFWKHWIQTKRGQCGSPLVSTRDGFIVGIHSASNFANTNKYFTSVPKNFMELLTNQEAQQWVSGWRLNADSVLWGGHKVFIPKPEEPFQPVKEATQLMN
KM [4]: 12.8 µM | fold higher kcat/KM on TENLYFESGTRRW versus […] [4]: 13-fold higher kcat/KM value | kcat [4]: 0.0255 s⁻¹ | kcat/KM [4]: 2060 M⁻¹ s⁻¹ | reversal of substrate specificity compared to TEV-P [4]: 5000-fold reversal of substrate specificity compared to TEV-P

B4: wild-type TEV protease (TEV-P), purified (protein)
chain: B3 chain with R124S, R152D, A177T, K181N, I222M
KM [4]: 1930 µM | fold by which kcat/KM on […] exceeds kcat/KM on TENLYFESGTRRW [4]: 375-fold | kcat [4]: 0.00609 s⁻¹ | kcat/KM [4]: 3.14 M⁻¹ s⁻¹ | KM [5]: 640 µM | fold by which kcat/KM on […] exceeds kcat/KM on TENLYFHSGTRRW [5]: 150-fold | kcat [5]: 0.00493 s⁻¹ | kcat/KM [5]: 7.55 M⁻¹ s⁻¹

B5: TEV-PH21, purified (protein)
chain: B3 chain with T21A, R124S, T150A, R152P, S157C, S172T, S174A, K181N, I222M
KM [5]: 250 µM | fold higher kcat/KM on TENLYFHSGTRRW versus […] [5]: 7 fold | kcat [5]: 0.0375 s⁻¹ | kcat/KM [5]: 150 M⁻¹ s⁻¹ | reversal of substrate specificity compared to TEV-P [5]: 1100-fold reversal of substrate specificity compared to TEV-P

B6: human Abelson tyrosine kinase (AblTK) (protein)
chain: SPNYDKWEMERTDITMKHKLGGGQYGEVYEGVWKKYSLTVAVKTLKEDTMEVEEFLKEAAVMKEIKHPNLVQLLGVCTREPPFYIITEFMTYGNLLDYLRECNRQEVNAVVLLYMATQISSAMEYLEKKNFIHRDLAARNCLVGENHLVKVADFGLSRLMTGDTYTAHAGAKFPIKWTAPESLAYNKFSIKSDVWAFGVLLWEIATYGMSPYPGIDLSQVYELLEKDYRMERPEGCPEKVYELMRACWQWNPSDRPSFAEIHQAFETMFQESSISDEVEKELGK
YESS FACS (Alexa Fluor 647 anti-phosphotyrosine / anti-6xHis-FITC) [6]: displayed relatively similar FITC but high Alexa Fluor@647 signals by FACS
